Molecular target: T1, CD276/B7-H3 (Homo sapiens (endogenous on DAOY …, UniProt Q5ZPR3))
T1 construct: CD276/B7-H3, transmembrane protein, endogenous on medulloblastoma patient-derived DAOY cells; source: endogenous, on GFP-expressing DAOY (HTB-186) medulloblastoma cells
Experiment: immunostaining of cells or tissue; inhibition assay on live GFP-expressing DAOY cells: CD276Ab at 0, 12.5, 25.0, 50.0 and 100 ug/mL for 1 h at 37 °C, washed, then DBCO-CD276Ab-Cy5 (30.0 ug/mL) for 1 h at 37 °C; Cy5 fluorescence within cells by confocal laser scanning microscopy
Conditions: one partner purified

T1 sequence (Q5ZPR3 29-534): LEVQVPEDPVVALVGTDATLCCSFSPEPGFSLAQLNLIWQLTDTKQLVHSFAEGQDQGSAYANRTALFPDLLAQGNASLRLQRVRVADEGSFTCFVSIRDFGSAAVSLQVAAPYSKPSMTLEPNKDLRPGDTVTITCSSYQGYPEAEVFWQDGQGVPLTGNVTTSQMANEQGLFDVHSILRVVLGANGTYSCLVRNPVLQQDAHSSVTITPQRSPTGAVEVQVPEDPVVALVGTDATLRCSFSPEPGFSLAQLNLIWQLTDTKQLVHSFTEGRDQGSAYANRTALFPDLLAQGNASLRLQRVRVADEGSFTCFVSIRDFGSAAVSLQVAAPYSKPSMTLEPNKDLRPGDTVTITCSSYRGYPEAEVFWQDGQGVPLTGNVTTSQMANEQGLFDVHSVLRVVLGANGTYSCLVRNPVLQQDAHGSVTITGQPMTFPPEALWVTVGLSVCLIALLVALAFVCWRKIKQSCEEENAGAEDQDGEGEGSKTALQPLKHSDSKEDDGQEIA

binding result | Binder
binds | Cy5-labeled DBCO-CD276Ab (DBCO-CD276Ab-Cy5) (antibody, V domains shown, as in m1: constant region of the IgG heavy chain as far as it is not in PDB 5CMA; m1 chemically modified: DBCO-PEG4-NHS fed at 0.25 eq. to primary amines, then Cy5-NHS ester; also called the fabricated antibody; source: CD276Ab from Expi CHO cells, conjugated with DBCO-PEG4-NHS and Cy5-NHS ester, purified (Protein G HP SpinTrap)) VH: QVQLQQSGAELVKPGASVKLSCKASGYTFTNYDINWVRQRPEQGLEWIGWIFPGDGSTQYNEKFKGKATLTTDTSSSTAYMQLSRLTSEDSAVYFCARQTTATWFAYWGQGTLVTVSA VL: DIVMTQSPATLSVTPGDRVSLSCRASQSISDYLHWYQQKSHESPRLLIKYASQSISGIPSRFSGSGSGSDFTLSINSVEPEDVGVYYCQNGHSFPLTFGAGTKLELK
binds | anti-CD276 antibody (CD276Ab), 8H9 antibody, IgG (antibody, V domains shown, heavy chain of 8H9; constant region of the IgG heavy chain as far as it is not in PDB 5CMA; light chain of 8H9; IgG; the fabrication scheme is said to be in the Supplementary Materials; also called 'as prepared' CD276Ab; source: Expi CHO cells, co-transfected with heavy and light chain vectors, purified from supernatant (rProtein A Sepharose, SEC)) VH: QVQLQQSGAELVKPGASVKLSCKASGYTFTNYDINWVRQRPEQGLEWIGWIFPGDGSTQYNEKFKGKATLTTDTSSSTAYMQLSRLTSEDSAVYFCARQTTATWFAYWGQGTLVTVSA VL: DIVMTQSPATLSVTPGDRVSLSCRASQSISDYLHWYQQKSHESPRLLIKYASQSISGIPSRFSGSGSGSDFTLSINSVEPEDVGVYYCQNGHSFPLTFGAGTKLELK

Source: PMC10097392, “Ligand Installation to Polymeric Micelles for Pediatric Brain Tumor Targeting” (Polymers, 2023)
